Legend:
[1] = molecular target: human survival motor neuron (SMN1) protein (human) (UniProt Q16637); assay: immunofluorescence, cells transduced with AAV9-SMN1 at MOI 37500, well 1
[2] = molecular target: human survival motor neuron (SMN1) protein (human) (UniProt Q16637); assay: immunofluorescence, cells transduced with AAV9-SMN1 at MOI 75000, well 1
[3] = molecular target: methyl cytosine binding protein 2 (MeCP2); assay: immunofluorescence, cells transduced with AAV9-MECP2 at MOI 18750, well 2 (background level)
[4] = molecular target: methyl cytosine binding protein 2 (MeCP2); assay: immunofluorescence, cells transduced with AAV9-MECP2 at MOI 37500, well 1 (background level)
[5] = molecular target: human survival motor neuron (SMN1) protein (human) (UniProt Q16637); assay: immunofluorescence, fixed/permeabilised mTD-NPC-delta7 cells transduced with AAV9-SMN1 at MOI 300000, well 1
[6] = molecular target: methyl cytosine binding protein 2 (MeCP2); assay: immunofluorescence, cells transduced with AAV9-MECP2 at MOI 300000, well 1 (background level)
[7] = molecular target: human survival motor neuron (SMN1) protein (human) (UniProt Q16637); assay: immunofluorescence, cells transduced with AAV9-SMN1 at MOI 75000, well 2
[8] = molecular target: human survival motor neuron (SMN1) protein (human) (UniProt Q16637); assay: immunofluorescence, cells transduced with AAV9-SMN1 at MOI 150000, well 2
[9] = molecular target: methyl cytosine binding protein 2 (MeCP2); assay: immunofluorescence, cells transduced with AAV9-MECP2 at MOI 75000, well 1 (background level)
[10] = molecular target: methyl cytosine binding protein 2 (MeCP2); assay: immunofluorescence, cells transduced with AAV9-MECP2 at MOI 18750, well 1 (background level)
[11] = molecular target: human survival motor neuron (SMN1) protein (human) (UniProt Q16637); assay: immunofluorescence, cells transduced with AAV9-SMN1 at MOI 37500, well 2
[12] = molecular target: methyl cytosine binding protein 2 (MeCP2); assay: immunofluorescence, cells transduced with AAV9-MECP2 at MOI 150000, well 1 (background level)
[13] = molecular target: methyl cytosine binding protein 2 (MeCP2); assay: immunofluorescence, cells transduced with AAV9-MECP2 at MOI 150000, well 2 (background level)
[14] = molecular target: human survival motor neuron (SMN1) protein (human) (UniProt Q16637); assay: immunofluorescence, cells transduced with AAV9-SMN1 at MOI 18750, well 1
[15] = molecular target: methyl cytosine binding protein 2 (MeCP2); assay: immunofluorescence, cells transduced with AAV9-MECP2 at MOI 37500, well 2 (background level)
[16] = molecular target: human survival motor neuron (SMN1) protein (human) (UniProt Q16637); assay: immunofluorescence, cells transduced with AAV9-SMN1 at MOI 18750, well 2
[17] = molecular target: human survival motor neuron (SMN1) protein (human) (UniProt Q16637); assay: immunofluorescence, fixed/permeabilised mTD-NPC-delta7 cells transduced with AAV9-SMN1 at MOI 300000, well 2
[18] = molecular target: methyl cytosine binding protein 2 (MeCP2); assay: immunofluorescence, cells transduced with AAV9-MECP2 at MOI 75000, well 2 (background level)
[19] = molecular target: methyl cytosine binding protein 2 (MeCP2); assay: immunofluorescence, cells transduced with AAV9-MECP2 at MOI 300000, well 2 (background level)
[20] = molecular target: human survival motor neuron (SMN1) protein (human) (UniProt Q16637); assay: immunofluorescence, cells transduced with AAV9-SMN1 at MOI 150000, well 1

UniProt Q16637, sequence (Q16637 2-294 limits assumed): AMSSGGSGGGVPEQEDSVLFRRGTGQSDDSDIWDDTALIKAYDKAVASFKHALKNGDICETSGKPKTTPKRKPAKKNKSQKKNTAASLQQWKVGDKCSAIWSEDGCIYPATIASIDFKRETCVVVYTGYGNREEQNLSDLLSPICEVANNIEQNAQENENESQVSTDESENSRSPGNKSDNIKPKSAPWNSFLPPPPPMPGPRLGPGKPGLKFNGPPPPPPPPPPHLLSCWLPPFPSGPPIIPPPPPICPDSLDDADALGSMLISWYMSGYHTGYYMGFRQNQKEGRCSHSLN

IFI-C (integrated fluorescent intensity per cell) [3]: 759000 | IFI-C (integrated fluorescent intensity per cell) [4]: 809000 | IFI-C (integrated fluorescent intensity per cell) [6]: 867000 | IFI-C (integrated fluorescent intensity per cell) [9]: 837000 | IFI-C (integrated fluorescent intensity per cell) [10]: 720000 | IFI-C (integrated fluorescent intensity per cell) [12]: 886000 | IFI-C (integrated fluorescent intensity per cell) [13]: 839000 | IFI-C (integrated fluorescent intensity per cell) [15]: 817000 | IFI-C (integrated fluorescent intensity per cell) [18]: 860000 | IFI-C (integrated fluorescent intensity per cell) [19]: 875000
Substance: mouse monoclonal anti-SMN antibody (Clone 2B1)
IFI-C (integrated fluorescent intensity per cell) [1]: 1.87e+06 | IFI-C (integrated fluorescent intensity per cell) [2]: 2.34e+06 | IFI-C (integrated fluorescent intensity per cell) [5]: 3.43e+06 | IFI-C (integrated fluorescent intensity per cell) [7]: 2.46e+06 | IFI-C (integrated fluorescent intensity per cell) [8]: 3.02e+06 | IFI-C (integrated fluorescent intensity per cell) [11]: 1.86e+06 | IFI-C (integrated fluorescent intensity per cell) [14]: 1.46e+06 | IFI-C (integrated fluorescent intensity per cell) [16]: 1.51e+06 | IFI-C (integrated fluorescent intensity per cell) [17]: 3.27e+06 | IFI-C (integrated fluorescent intensity per cell) [20]: 2.87e+06

Reference: US20210255185A1
